Like-named read-outs stand apart in the source and are kept apart here.
Assays:
[1] = molecular target: human proton-activated chloride channel (PAC), reconstituted in MSP3D1 lipid nanodiscs (human) (UniProt Q9H813); experiment: cryo-EM structure
[2] = molecular target: human proton-activated chloride channel (PAC), reconstituted in MSP3D1 lipid nanodiscs (human) (UniProt Q9H813); experiment: cryo-EM structure; remark: listed apart in the source

- stoichiometry N [1]: 3
- stoichiometry N [2]: 3
Substance: human proton-activated chloride channel (PAC), reconstituted in MSP3D1 lipid nanodiscs (from UniProt Q9H813 1-350) (natural protein)

Reference: PMC7773282
